Molecular target: T1, recombinant full-length Vps41 (S. cerevisiae, UniProt P38959 1-992)
T1 sequence: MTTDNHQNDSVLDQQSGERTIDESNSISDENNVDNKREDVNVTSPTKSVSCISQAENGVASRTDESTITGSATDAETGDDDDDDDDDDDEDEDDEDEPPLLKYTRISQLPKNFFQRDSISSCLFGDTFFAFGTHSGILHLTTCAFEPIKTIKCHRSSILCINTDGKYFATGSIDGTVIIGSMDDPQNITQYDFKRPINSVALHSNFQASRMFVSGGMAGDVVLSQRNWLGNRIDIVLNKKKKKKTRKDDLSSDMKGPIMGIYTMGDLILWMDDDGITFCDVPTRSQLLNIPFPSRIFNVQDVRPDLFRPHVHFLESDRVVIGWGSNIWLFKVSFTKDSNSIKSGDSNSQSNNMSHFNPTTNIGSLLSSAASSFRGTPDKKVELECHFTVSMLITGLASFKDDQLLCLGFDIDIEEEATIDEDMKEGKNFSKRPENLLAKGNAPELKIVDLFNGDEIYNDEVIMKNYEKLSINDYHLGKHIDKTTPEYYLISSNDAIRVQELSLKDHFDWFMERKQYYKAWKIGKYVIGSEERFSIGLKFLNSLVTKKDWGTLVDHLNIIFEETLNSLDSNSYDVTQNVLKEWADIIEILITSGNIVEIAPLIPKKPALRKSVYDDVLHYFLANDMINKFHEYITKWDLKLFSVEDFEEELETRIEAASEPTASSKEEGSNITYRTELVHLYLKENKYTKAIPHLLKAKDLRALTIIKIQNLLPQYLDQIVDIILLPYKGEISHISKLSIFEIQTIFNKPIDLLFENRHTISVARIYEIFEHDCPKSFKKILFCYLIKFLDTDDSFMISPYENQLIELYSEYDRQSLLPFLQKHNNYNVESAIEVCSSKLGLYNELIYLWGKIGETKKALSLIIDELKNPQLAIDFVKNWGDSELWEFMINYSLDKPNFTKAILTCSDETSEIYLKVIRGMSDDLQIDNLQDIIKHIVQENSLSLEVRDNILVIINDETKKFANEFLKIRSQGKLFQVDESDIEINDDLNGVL
Assay: pull-down

B1: GST-Ypt7 (natural protein)
chain: MSSRKKNILKVIILGDSGVGKTSLMHRYVNDKYSQQYKATIGADFLTKEVTVDGDKVATMQVWDTAGQERFQSLGVAFYRGADCCVLVYDVTNASSFENIKSWRDEFLVHANVNSPETFPFVILGNKIDAEESKKIVSEKSAQELAKSLGDIPLFLTSAKNAINVDTAFEEIARSALQQNQADTEAFEDDYNDAINIRLDGENNSCSC
  binding result: binds

— PMC2542475 (The Journal of Cell Biology, 2008)
